US20150259430A1 (MAB DISCOVERY, published 2015)

What was measured:
Assay in all cases: ELISA, coated antigen
[1] = target: T1, recombinant Fc chimeric conjugate of human c-Met (human, UniProt P08581 25-932)
T1 construct: extracellular domain; Coated on the ELISA plate
Method: (§1) Microtiter plates were coated with a) c-Met, IGF-1R, EGFR, HER2, and/or HER3 protein or b) EGFR, HER2, and/or HER3 (recombinant Fc chimeric conjugates of human c-Met, IGF-1R, EGFR, HER2, HER3 or IL12 Rβ1). After a blocking process, specific antibodies from B-cell supernatants bind to the targets and are then detected by a POD-labeled anti-rabbit IgG antibody. The IL12R binding was used as a counter-screen.
(§2) 12.5 μL 0.5 μg/mL protein in PBS was transferred to a microtiter plate incubated and washed 3× with Wash Buffer. 90 μL Block Buffer was added to each well, incubated and washed. 12.5 μL Standard Antibody (Anti-EGF-Receptor; HER2 Rabbit anti-Human Monoclonal (extracellular domain) (SP3) Antibody; HER3 (N-terminal) antibody; start concentration 2 μg/ml; IL-12Rbeta1 antibody start concentration 500 ng/ml) in 1:2 dilutions or sample diluted in ELISA buffer was added, incubated and washed. 12.5 μl 1:5000 POD-Antibody (Anti-rabbit IgG, peroxidase-linked species-specific Fab2 fragment (from donkey) (ECL); assay dilution: 1:5000) in Elisa Buffer was added, incubated and washed. 15 μl TMB was added and 15 μl HCl was added after sufficient development. Absorbance (Optical Density O.D.) was read at 450 nm/620 nm.

[2] = target: T2, recombinant Fc chimeric conjugate of human EGFR (human, UniProt P00533 25-645)
T2 construct: extracellular domain; Coated on the ELISA plate; also called HER1; Her1
Method: as §1, §2

[3] = target: T3, recombinant Fc chimeric conjugate of human HER2 (human, UniProt P04626 23-652)
T3 construct: extracellular domain; Coated on the ELISA plate
Method: as §1, §2

T1 sequence (P08581 25-932, change not shown): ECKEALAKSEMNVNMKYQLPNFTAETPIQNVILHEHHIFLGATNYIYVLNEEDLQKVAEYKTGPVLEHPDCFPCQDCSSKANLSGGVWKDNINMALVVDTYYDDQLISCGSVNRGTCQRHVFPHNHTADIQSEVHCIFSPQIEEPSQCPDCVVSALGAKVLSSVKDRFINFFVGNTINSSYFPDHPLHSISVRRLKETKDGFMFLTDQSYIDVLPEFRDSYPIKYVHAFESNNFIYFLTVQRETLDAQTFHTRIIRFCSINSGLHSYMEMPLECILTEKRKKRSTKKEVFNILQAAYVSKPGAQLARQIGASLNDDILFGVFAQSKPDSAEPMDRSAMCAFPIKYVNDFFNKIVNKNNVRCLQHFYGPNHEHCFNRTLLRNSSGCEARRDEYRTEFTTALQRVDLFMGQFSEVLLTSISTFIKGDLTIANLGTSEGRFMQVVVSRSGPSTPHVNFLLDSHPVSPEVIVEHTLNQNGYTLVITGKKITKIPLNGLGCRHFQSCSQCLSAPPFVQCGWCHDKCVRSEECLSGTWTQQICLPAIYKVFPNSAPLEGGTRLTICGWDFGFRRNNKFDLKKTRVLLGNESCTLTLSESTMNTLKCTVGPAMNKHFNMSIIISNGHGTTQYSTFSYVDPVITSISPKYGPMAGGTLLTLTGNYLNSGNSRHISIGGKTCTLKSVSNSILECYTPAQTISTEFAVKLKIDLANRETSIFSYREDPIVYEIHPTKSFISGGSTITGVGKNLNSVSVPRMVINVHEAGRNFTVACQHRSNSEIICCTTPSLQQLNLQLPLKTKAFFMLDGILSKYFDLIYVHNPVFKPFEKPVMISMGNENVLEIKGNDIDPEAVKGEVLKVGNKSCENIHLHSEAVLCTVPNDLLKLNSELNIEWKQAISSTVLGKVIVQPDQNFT

binding result [1]: no binding (tested: OD 0.1 or lower)
binding result [2]: no binding (tested: OD 0.1 or lower)
binding result [3]: no binding (tested: OD 0.1 or lower)
B1: Antibody 077.D03 (antibody, V domains shown)
VH: QSVEESGGRLVTPGTPLTLTCTVSGIDLSSNAMSWVRQAPGKGLEWIGFISSSGTTYYASWAKGRFTISKTSTTVDLKITSPTTEDTATYFCTRFDLWGQGTLVTVSS
VL: DVVMTQTPASVSEPVGGTVTINCQASQSITTALAWYQQKPGQPPKLLIYKASTLASGVSSRFKGSGSGAEYTLTISDLECADAATYYCQCTGYDTSYVGGFGGGTEVVVK
notes: rabbit IgG in B-cell supernatant
